The numbers were not newly measured in publication PMC9274133, which cites them from elsewhere.

pKd: −log10 of the molar value.

Targets include IL-11R (Homo sapiens) (UniProt Q14626); IL-6R (Homo sapiens) (UniProt P08887); gp130 (Homo sapiens) (UniProt P40189).

Chain of IL-11 (P20809 22-199): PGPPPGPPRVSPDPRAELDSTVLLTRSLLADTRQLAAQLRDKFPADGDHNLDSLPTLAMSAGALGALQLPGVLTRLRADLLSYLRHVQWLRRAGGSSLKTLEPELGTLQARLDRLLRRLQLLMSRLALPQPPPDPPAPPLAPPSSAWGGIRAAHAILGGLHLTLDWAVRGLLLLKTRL
Chain of gp130 (Homo sapiens) (P40189 23-619): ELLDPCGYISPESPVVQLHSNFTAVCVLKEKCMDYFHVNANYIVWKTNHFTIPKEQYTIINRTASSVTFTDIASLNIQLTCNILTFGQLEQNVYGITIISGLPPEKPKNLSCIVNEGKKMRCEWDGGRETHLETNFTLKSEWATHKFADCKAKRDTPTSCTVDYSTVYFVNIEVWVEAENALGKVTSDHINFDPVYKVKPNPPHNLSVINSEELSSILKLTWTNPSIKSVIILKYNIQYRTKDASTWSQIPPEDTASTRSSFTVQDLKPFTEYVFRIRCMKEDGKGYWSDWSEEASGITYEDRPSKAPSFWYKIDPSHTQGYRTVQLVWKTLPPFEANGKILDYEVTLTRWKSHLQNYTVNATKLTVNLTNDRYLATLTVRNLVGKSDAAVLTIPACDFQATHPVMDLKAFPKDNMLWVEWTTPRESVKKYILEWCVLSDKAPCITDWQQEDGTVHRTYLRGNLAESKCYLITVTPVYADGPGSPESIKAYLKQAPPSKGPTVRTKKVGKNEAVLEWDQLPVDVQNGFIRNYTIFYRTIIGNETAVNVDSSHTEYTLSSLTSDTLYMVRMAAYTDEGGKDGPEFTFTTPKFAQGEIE
Chain of IL-6R (Homo sapiens) (P08887 20-355): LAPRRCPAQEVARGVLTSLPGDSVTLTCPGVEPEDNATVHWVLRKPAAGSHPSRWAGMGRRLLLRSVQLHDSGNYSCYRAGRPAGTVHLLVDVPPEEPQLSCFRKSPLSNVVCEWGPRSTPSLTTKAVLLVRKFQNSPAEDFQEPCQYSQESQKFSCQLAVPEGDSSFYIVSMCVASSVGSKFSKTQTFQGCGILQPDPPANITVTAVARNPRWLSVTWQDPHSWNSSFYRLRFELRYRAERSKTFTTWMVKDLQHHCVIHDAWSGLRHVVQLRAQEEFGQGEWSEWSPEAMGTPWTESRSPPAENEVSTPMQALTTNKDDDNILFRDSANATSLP
Chain of IL-11R (Homo sapiens) (Q14626 23-370): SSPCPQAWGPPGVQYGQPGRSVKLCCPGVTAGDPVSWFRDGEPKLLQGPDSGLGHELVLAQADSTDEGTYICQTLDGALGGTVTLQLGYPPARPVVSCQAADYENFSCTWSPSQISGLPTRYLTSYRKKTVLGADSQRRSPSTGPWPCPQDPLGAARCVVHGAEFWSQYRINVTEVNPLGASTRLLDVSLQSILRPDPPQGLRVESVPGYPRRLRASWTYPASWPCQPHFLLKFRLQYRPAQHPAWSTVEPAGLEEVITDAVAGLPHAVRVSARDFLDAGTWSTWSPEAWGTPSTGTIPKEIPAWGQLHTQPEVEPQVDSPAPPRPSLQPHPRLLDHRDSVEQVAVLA

In the case of IL-11 (from UniProt P20809), the pKd (commonly the negative decadic logarithm of the Kd, by convention in mol/L) with IL-11R (Homo sapiens) was 8.00.

For IL-6 (from UniProt P05231), the pKd with IL-6R (Homo sapiens) is 9.00.

“IL-6/IL-6R complex (from UniProt P05231)”: in the series with gp130 (Homo sapiens), the pKd was 11.00.
